According to patent publication US20220175781A1, “CD40L COMPOSITIONS AND METHODS FOR TUNABLE REGULATION” (Obsidian Therapeutics, Inc., priority 2019, published 2022):
Several values for one entry are separate records, joined by “and”; a condition that tells them apart may be missing. Equal values may be shown once.

Legend:
[1] = test system: Jurkat cells; experiment: CD40L shedding ELISA of supernatant, Jurkat cells with or without CD40-Fc receptor; type: cell-based; parameters: CD40L levels in supernatant: unit not given here; details: 6 hours
Protocol: Sheddases e.g. ADAM10/17 present in the tumor microenvironment can cleave CD40L thereby preventing the successful activation of CD40 by CD40L. […] OT-001669 which has a deletion of amino acids 1-13 of CD40L was designed to reduce internalization and OT-001668 which has a deletion of amino acids 110-116 of CD40L was designed to remove the ADAM10/17 sites. Jurkat cells stably expressing the full length construct OT-001661, OT-001669, or OT-001668 were cultured for 6 hours with 1.25 μg/ml recombinant human (h) or mouse (m) CD40-Fc receptor or left untreated and tested using an ELISA assay (Table 15).

[2] = test system: HEK293T cells; experiment: CD40L-ecDHFR constructs, CD40L surface expression in transfected HEK293T cells; type: cell-based, human; details: for SR (for % CD40L) / TMP/vehicle ratio of CD40L median fluorescence intensity: TMP (50 μM) versus Vehicle
Protocol: HEK293T cells were transiently transfected with the constructs in Table 39 (1 μg of DNA). 24 hours after transfection, the media was removed and replaced with fresh medium containing 50 μM TMP or DMSO. Another 24 hours later cells were analyzed by flow cytometry for CD40L surface expression. Table 39 provides CD40L expression as both % CD40L positive cells and the Median fluorescence intensity (MFI) values.

[3] = test system: Jurkat cells; experiment: In vivo CD40L regulation in Jurkat cells harvested from bone marrow of NSG mice; details: for CD40L MFI values / Percent CD40L positive cells: Jurkat cells from bone marrow, day 16
Description: Jurkat cells stably expressing OT-001661, OT-002034 were intravenously infused into 8-week old NSG mice (20 million cells per mouse). Starting by day 15, mice were orally dosed according to the study design shown in Table 42 and Jurkat cells were harvested on day 16 from the bone marrow and analyzed by FACS. In Tables 41 and 42, TMP refers to Trimethoprim and all dosing is relative to “0 hr” time point on day 16. The results are shown in Table 43 and Table 44 where “EV” refers to empty vector control.

[4] = test system: Jurkat cells; experiment: Linker length, ER regulated CD40L, % CD40L positive Jurkat cells; type: cell-based
Protocol: Jurkat cells were lentivirally transduced and 24 hours after transduction were treated with DMSO or 1 μM Bazedoxifene for another 24 hours and analyzed by flow cytometry for surface expression of CD40L. […] In Table 33, SR indicates stabilization ratio.

[5] = test system: T cells (CD4 and CD8 positive); experiment: Bazedoxifene dose response, CD40L MFI in CD4 and CD8 positive T cells (day 4, freeze/thaw, restimulation); type: cell-based
Protocol: Dose response with Bazedoxifene in T cells were conducted for OT-001966, OT-001967, OT-001666. Expression of CD40L was measured at (a) day 4 after transduction, (b) after freezing and thawing the cells or (c) after freezing and thawing the cells followed by restimulation with CD3/CD28 beads. The CD40L MFI (median fluorescence intensity) within CD4 and CD8 positive subpopulations is shown in Table 34 and Table 35 respectively.

[6] = Jurkat cells from bone marrow of mice treated with TMP versus vehicle control or empty vector
[7] = individual mice, TMP 500 mg/kg 3x oral

B1: OT-001669: CD40L construct with deletion of amino acids 1-13 of CD40L, designed to reduce internalization (protein)
chain: MHATGLPISMKIFMYLLTVFLITQMIGSALFAVYLHRRLDKIEDERNLHEDFVFMKTIQRCNTGERSLSLLNCEEIKSQFEGFVKDIMLNKEETKKENSFEMQKGDQNPQIAAHVISEASSKTTSVLQWAEKGYYTMSNNLVTLENGKQLTVKRQGLYYIYAQVTFCSNREASSQAPFIASLCLKSPGRFERILLRAANTHSSAKPCGQQSIHLGGVFELQPGASVFVNVTDPSQVSHGTGFTSFGLLKL
CD40L levels in supernatant ([1]; 1.25 μg/ml hCD40-Fc): 8444.30
CD40L levels in supernatant ([1]; 1.25 μg/ml mCD40-Fc): 4335.76
shedding of CD40L ([1]; 1.25 μg/ml recombinant human CD40-Fc): enhance the shedding
CD40L levels in supernatant ([1]; Untreated): 2137.69

B2: OT-002035: CD40L-ecDHFR construct of Table 39 (protein)
chain: MSGISLIAALAVDRVIGMENAMPWNLPADLAWFKRNTLNKPVIMGRHTWESIGRPLPGRKNIILSSQPGTDDRVTWVKSVDEAIAACGDVPEIMVIGGGRVREQFLPKAQKLYLTHIDAEVEGDTHFPDYEPDDWESVFSEFHDADAQNSHSYCFEILERRHMIETYNQTSPRSAATGLPISMKIFMYLLTVFLITQMIGSALFAVYLHRRLDKIEDERNLHEDFVFMKTIQRCNTGERSLSLLNCEEIKSQFEGFVKDIMLNKEETKKENSFEMQKGDQNPQIAAHVISEASSKTTSVLQWAEKGYYTMSNNLVTLENGKQLTVKRQGLYYIYAQVTFCSNREASSQAPFIASLCLKSPGRFERILLRAANTHSSAKPCGQQSIHLGGVFELQPGASVFVNVTDPSQVSHGTGFTSFGLLKL
TMP mediated expression of CD40L ([2]; HEK293T cells, 50 μM TMP or DMSO 24 hours): exception
% CD40L ([2]; TMP (50 μM)): 23.8%
MFI (Median) ([2]; TMP (50 μM)): 8311
SR (for % CD40L) [2]: 0.89
TMP/vehicle ratio of CD40L median fluorescence intensity [2]: 0.97
% CD40L ([2]; Vehicle): 26.7%
MFI (Median) ([2]; Vehicle): 8535

B3: OT-002034: TMP regulated CD40L construct stably expressed in Jurkat cells (protein)
chain: MSGISLIAALAVDRVIGMENAMPWNLPADLAWFKRNTLNKPVIMGRHTWESIGRPLPGRKNIILSSQPGTDDRVTWVKSVDEAIAACGDVPEIMVIGGGRVQEQFLPKAQKLYLTHIDAEVEGDTHFPDYEPDDWESVFSEFHDADAQNSHSYCFEILERRHMIETYNQTSPRSAATGLPISMKIFMYLLTVFLITQMIGSALFAVYLHRRLDKIEDERNLHEDFVFMKTIQRCNTGERSLSLLNCEEIKSQFEGFVKDIMLNKEETKKENSFEMQKGDQNPQIAAHVISEASSKTTSVLQWAEKGYYTMSNNLVTLENGKQLTVKRQGLYYIYAQVTFCSNREASSQAPFIASLCLKSPGRFERILLRAANTHSSAKPCGQQSIHLGGVFELQPGASVFVNVTDPSQVSHGTGFTSFGLLKL
% CD40L ([2]; TMP (50 μM)): 71.1%
MFI (Median) ([2]; TMP (50 μM)): 20569
SR (for % CD40L) [2]: 2.44
TMP/vehicle ratio of CD40L median fluorescence intensity [2]: 2.59
% CD40L ([2]; Vehicle): 29.1%
MFI (Median) ([2]; Vehicle): 7957
CD40L MFI values ([3]; Average, TMP 500 mg/kg 3x oral): 520.75
Percent CD40L positive cells ([3]; Average, TMP 500 mg/kg 3x oral): 53.4%
CD40L MFI values ([3]; Average, Vehicle): 93.65
Percent CD40L positive cells ([3]; Average, Vehicle): 1.82%
% CD40L positive cells [3, 6]: increased
CD40L values (MFI) [3, 6]: increased
CD40L MFI values [3, 7]: 608 and 542 and 505 and 428
Percent CD40L positive cells [3, 7]: 61% and 56.3% and 52.2% and 44.1%
CD40L MFI values ([3]; individual mice, Vehicle): 101 and 80.6 and 97.9 and 95.1
Percent CD40L positive cells ([3]; individual mice, Vehicle): 2.36% and 0.83% and 2.17% and 1.92%

B4: OT-001967: ER regulated CD40L construct with varied linker length (protein)
chain: MSLALSLTADQMVSALLDAEPPILYSEYDPTRPFSEASMMGLLTNLADRELVHMINWAKRVPGFVDLTLHDQVHLLECAWMEILMIGLVWRSMEHPGKLLFAPNLLLDRDQGKCVEGGVEIFDMLLATSSRFRMMNLQGEEFVCLKSIILLNSGVYTFLSSTLKSLEEKDHIHRVLDKITDTLIHLMAKAGLTLQQQHQRLAQLLLILSHIRHMSNKRMEHLYSMKCKNVVPLSDLLLEMLDAHRLGSMIETYNQTSPRSAATGLPISMKIFMYLLTVFLITQMIGSALFAVYLHRRLDKIEDERNLHEDFVFMKTIQRCNTGERSLSLLNCEEIKSQFEGFVKDIMLNKEETKKENSFEMQKGDQNPQIAAHVISEASSKTTSVLQWAEKGYYTMSNNLVTLENGKQLTVKRQGLYYIYAQVTFCSNREASSQAPFIASLCLKSPGRFERILLRAANTHSSAKPCGQQSIHLGGVFELQPGASVFVNVTDPSQVSHGTGFTSFGLLKL
Percent of Jurkat cells expressing CD40L ([4]; 1 μM Bazedoxifene): 30%
SR ([4]; 1 μM Bazedoxifene versus DMSO, % CD40L positive Jurkat cells): 15
Percent of Jurkat cells expressing CD40L ([4]; DMSO): 2%
CD40L expression (MFI) ([5]; CD4+ cells, Day 5, Bazedoxifene 0.01 nM): 473
CD40L expression (MFI) ([5]; CD4+ cells, Day 5, Bazedoxifene 0.1 nM): 474
CD40L expression (MFI) ([5]; CD4+ cells, Day 5, Bazedoxifene 1 nM): 483
CD40L expression (MFI) ([5]; CD4+ cells, Day 5, Bazedoxifene 10 nM): 497
CD40L expression (MFI) ([5]; CD4+ cells, Day 5, Bazedoxifene 100 nM): 630
CD40L expression (MFI) ([5]; CD4+ cells, Day 5, Bazedoxifene 1000 nM): 998
CD40L expression (MFI) ([5]; CD4+ cells, Day 5, Bazedoxifene 10000 nM): 1000
CD40L expression (MFI) ([5]; CD4+ cells, Post Thaw, Bazedoxifene 0.01 nM): 156
CD40L expression (MFI) ([5]; CD4+ cells, Post Thaw, Bazedoxifene 0.1 nM): 160
CD40L expression (MFI) ([5]; CD4+ cells, Post Thaw, Bazedoxifene 1 nM): 161
CD40L expression (MFI) ([5]; CD4+ cells, Post Thaw, Bazedoxifene 10 nM): 172
CD40L expression (MFI) ([5]; CD4+ cells, Post Thaw, Bazedoxifene 100 nM): 200
CD40L expression (MFI) ([5]; CD4+ cells, Post Thaw, Bazedoxifene 1000 nM): 223
CD40L expression (MFI) ([5]; CD4+ cells, Post Thaw, Bazedoxifene 10000 nM): 457
CD40L expression (MFI) ([5]; CD4+ cells, Restim, Bazedoxifene 0.01 nM): 913
CD40L expression (MFI) ([5]; CD4+ cells, Restim, Bazedoxifene 0.1 nM): 922
CD40L expression (MFI) ([5]; CD4+ cells, Restim, Bazedoxifene 1 nM): 913
CD40L expression (MFI) ([5]; CD4+ cells, Restim, Bazedoxifene 10 nM): 1131
CD40L expression (MFI) ([5]; CD4+ cells, Restim, Bazedoxifene 100 nM): 1549
CD40L expression (MFI) ([5]; CD4+ cells, Restim, Bazedoxifene 1000 nM): 1232
CD40L expression (MFI) ([5]; CD4+ cells, Restim, Bazedoxifene 10000 nM): 291
CD40L expression (MFI) ([5]; CD8+ cells, Day 5, Bazedoxifene 0.01 nM): 153
CD40L expression (MFI) ([5]; CD8+ cells, Day 5, Bazedoxifene 0.1 nM): 153
CD40L expression (MFI) ([5]; CD8+ cells, Day 5, Bazedoxifene 1 nM): 157
CD40L expression (MFI) ([5]; CD8+ cells, Day 5, Bazedoxifene 10 nM): 158
CD40L expression (MFI) ([5]; CD8+ cells, Day 5, Bazedoxifene 100 nM): 226
CD40L expression (MFI) ([5]; CD8+ cells, Day 5, Bazedoxifene 1000 nM): 424
CD40L expression (MFI) ([5]; CD8+ cells, Day 5, Bazedoxifene 10000 nM): 392
CD40L expression (MFI) ([5]; CD8+ cells, Post Thaw, Bazedoxifene 0.01 nM): 108
CD40L expression (MFI) ([5]; CD8+ cells, Post Thaw, Bazedoxifene 0.1 nM): 105
CD40L expression (MFI) ([5]; CD8+ cells, Post Thaw, Bazedoxifene 1 nM): 108
CD40L expression (MFI) ([5]; CD8+ cells, Post Thaw, Bazedoxifene 10 nM): 114
CD40L expression (MFI) ([5]; CD8+ cells, Post Thaw, Bazedoxifene 100 nM): 149
CD40L expression (MFI) ([5]; CD8+ cells, Post Thaw, Bazedoxifene 1000 nM): 178
CD40L expression (MFI) ([5]; CD8+ cells, Post Thaw, Bazedoxifene 10000 nM): 263
CD40L expression (MFI) ([5]; CD8+ cells, Restim, Bazedoxifene 0.1 nM): 269
CD40L expression (MFI) ([5]; CD8+ cells, Restim, Bazedoxifene 1 nM): 274
CD40L expression (MFI) ([5]; CD8+ cells, Restim, Bazedoxifene 10 nM): 265
CD40L expression (MFI) ([5]; CD8+ cells, Restim, Bazedoxifene 100 nM): 326
CD40L expression (MFI) ([5]; CD8+ cells, Restim, Bazedoxifene 1000 nM): 445
CD40L expression (MFI) ([5]; CD8+ cells, Restim, Bazedoxifene 10000 nM): 372
